Experimental data taken from patent publication US20260116958A1 (University of California, published 2026).

What was measured:
active BoNT/G holotoxin = target: T1, active BoNT/G holotoxin (Clostridium botulinum, UniProt Q60393 2-1297); experiment: KinExA, IgG
T1 sequence: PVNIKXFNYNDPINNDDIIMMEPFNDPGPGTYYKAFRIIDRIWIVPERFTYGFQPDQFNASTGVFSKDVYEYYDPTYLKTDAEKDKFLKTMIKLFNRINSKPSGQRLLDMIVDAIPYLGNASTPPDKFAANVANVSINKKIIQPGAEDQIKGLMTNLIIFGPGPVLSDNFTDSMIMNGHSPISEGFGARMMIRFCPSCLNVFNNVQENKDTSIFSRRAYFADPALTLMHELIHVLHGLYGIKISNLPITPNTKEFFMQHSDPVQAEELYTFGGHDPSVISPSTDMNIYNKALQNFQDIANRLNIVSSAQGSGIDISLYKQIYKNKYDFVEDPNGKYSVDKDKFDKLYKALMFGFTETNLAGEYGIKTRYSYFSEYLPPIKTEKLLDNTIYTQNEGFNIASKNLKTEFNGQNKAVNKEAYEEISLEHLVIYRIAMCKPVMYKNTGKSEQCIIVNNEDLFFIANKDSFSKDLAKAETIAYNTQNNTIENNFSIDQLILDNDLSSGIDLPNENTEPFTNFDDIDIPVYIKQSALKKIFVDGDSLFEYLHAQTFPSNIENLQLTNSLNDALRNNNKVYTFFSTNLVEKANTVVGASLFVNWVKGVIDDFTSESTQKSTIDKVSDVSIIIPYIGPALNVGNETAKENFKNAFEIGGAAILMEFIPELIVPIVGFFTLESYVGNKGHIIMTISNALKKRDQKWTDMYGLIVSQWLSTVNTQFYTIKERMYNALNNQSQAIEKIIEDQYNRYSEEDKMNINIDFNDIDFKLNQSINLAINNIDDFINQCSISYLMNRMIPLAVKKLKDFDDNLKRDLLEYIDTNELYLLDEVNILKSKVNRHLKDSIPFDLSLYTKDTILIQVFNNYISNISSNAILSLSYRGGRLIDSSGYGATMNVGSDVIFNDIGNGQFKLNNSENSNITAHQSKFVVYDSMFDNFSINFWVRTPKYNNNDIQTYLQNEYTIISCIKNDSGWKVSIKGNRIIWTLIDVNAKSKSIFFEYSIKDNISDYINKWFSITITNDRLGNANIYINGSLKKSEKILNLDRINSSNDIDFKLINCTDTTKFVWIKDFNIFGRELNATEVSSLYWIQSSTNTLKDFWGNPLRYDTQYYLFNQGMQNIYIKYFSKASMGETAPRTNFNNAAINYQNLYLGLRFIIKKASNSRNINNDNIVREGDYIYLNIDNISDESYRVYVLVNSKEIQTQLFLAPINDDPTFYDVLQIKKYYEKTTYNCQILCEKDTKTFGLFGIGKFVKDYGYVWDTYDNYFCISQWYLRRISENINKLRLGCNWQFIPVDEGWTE

[1] = target: T2, inactive BoNT/G (BoNT/Gi) (Clostridium botulinum, UniProt Q60393 1-1297); experiment: FACS, scFv on yeast
T2 sequence: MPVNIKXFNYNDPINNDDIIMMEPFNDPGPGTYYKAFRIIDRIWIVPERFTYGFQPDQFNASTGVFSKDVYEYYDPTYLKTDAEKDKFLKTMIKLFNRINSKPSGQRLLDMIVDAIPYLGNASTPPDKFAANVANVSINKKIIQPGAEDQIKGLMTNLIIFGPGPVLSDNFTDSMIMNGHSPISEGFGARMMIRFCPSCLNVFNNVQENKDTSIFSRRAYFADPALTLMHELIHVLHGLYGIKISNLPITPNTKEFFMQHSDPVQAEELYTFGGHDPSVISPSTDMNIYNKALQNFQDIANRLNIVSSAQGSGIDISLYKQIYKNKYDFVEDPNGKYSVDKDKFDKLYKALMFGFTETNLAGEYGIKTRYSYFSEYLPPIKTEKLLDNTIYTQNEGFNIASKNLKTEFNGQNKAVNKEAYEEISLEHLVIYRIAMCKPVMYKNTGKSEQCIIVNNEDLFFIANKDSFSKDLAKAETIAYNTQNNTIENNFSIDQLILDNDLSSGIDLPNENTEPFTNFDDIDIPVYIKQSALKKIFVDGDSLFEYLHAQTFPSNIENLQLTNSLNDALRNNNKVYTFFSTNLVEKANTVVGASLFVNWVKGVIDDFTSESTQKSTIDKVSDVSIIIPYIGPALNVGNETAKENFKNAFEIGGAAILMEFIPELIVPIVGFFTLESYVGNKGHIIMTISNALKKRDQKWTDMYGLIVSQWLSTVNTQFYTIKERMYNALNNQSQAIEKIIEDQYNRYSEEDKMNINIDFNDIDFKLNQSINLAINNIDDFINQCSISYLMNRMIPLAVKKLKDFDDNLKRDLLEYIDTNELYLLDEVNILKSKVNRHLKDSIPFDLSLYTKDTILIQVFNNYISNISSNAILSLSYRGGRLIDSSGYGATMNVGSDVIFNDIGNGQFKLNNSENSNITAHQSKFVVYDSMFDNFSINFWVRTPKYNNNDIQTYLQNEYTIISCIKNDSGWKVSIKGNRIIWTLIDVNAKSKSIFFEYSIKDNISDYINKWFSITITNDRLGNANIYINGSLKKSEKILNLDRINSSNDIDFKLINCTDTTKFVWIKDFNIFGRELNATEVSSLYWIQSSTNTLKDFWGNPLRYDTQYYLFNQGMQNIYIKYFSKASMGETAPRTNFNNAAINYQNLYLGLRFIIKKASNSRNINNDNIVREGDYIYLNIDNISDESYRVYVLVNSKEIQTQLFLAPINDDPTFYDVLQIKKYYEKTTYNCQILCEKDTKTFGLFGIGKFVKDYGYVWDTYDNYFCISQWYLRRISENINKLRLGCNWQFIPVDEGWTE

Row | Binder | Kd (active BoNT/G holotoxin) [nM] | Kd [1] [nM]
1 | Hu6G7.1 IgG (antibody, V domains shown) VH: QVQLVQSGAEVKKPGASVKVSCKASDYSFTDYNIYWVRQTPGQGLEWIGYIDPYNGGTSYNQKFKGRATLTVDKSISTAYMELSRLRSDDTAVYYCALYGYDPDYIDYWGQGTTLTVSS VL: DIVLTQSPASMAVSPGQRVTITCSASSSVSYLHWFQQKPGQSPKLWIYSTSNLASGVPARFSGSGSGTDYTLTINPMEAEDTATYYCQQRSSYPYTFGQGTKLEIKR | 1.19 | 
2 | 6G9 IgG (antibody, V domains shown) VH: EVQLQQSGDDLVKPGASVKMSCKASGYTFTSYWMHWVKQRPGQGLEWIGYINPSTGYTEYNQKFKDKATLTADKSSSTAYMQLSSLTSEDSAVYYCARGGNYVDYWGQGTTLTVSS VL: EIVLTQSPAIMSASPGEKVTISCSASSSVSYMYWYQQKPGSSPKPWIYRTSNLASGVPARFSGSGSGTSYSLTISSMEAEDAATYYCQQWSSNPYTFGGGTKLEIKR | 1.59 | 
3 | Hu6G9.1 IgG (antibody, V domains shown) VH: QVQLVQSGAEVKKPGASVKMSCKASGYTFTSYWMHWVRQAPGQGLEWVGYINPSTGYTEYNQKFKDRATLTADKSTSTAYMELRSLRSDDTAVYYCARGGNYVDYWGQGTTLTVSS VL: DIQMTQSPSTLSASVGERVTITCRASHGISSWLAWYQQKPGKAPKRLIYAVSTLQTGVPSRFSDSGSGTDLTLTINSLQPEDFATYYCQDLNSYPLSFGGGTKVEIKR | 0.0275 | 
4 | 6G10 IgG (antibody, V domains shown) VH: EVQLQQSGPELVKPGASVKISCKASGYSFTGYFMHWVKQSHVKSLEWIGRINPYNGDIIYNQNFKDKASLTVDKSSSTAYMELHSLTSEDSAVYYCASLFGLYYFDYWGQGTTLTVSS VL: EIVLTQSPAIMSASPGEKVTMTCSASSSVSYMHWYQQKSGTSPKRWIYDTSKLASGVPARFSGSGSGTSYSLTISSMEAEDAATYYCQQWSSNPLTFGAGTKLELKR | 0.33 | 
5 | Hu6G10 scFv (scFv, V domains shown) VH: QVQLVQSGAEVKKPGATVKISCKASGYSFTGYFMHWVRQAPGKGLEWIGRINPYNGDIIYNQNFKDRATLTVDKSTSTAYMELSSLRSEDTAVYYCASLFGLYYFDYWGQGTTLTVSS VL: DVVMTQSPSSVSASVGDRVTITCRASQRISNHLNWYQQKPGKAPKRLIYAASSLESGVPSRFSGSGSGTEFTLTISSLQPEDFATYFCLQHNSYPYTFGQGTKVEIKR |  | 0.52
6 | hu6G6 IgG (antibody, V domains shown) VH: QVQLVQSGAEVKKPGASVKLSCKASGFNIKDTYMHWVRQAPGQGLEWIGRIDPANGNTKYDPKFQGRATITADTSINTAYLELSRLRSDDTAVYYCASGPNYYGTTWFAYWGQGTTVTVSS VL: EIVLTQSPSTLSASVGDRVTITCRASHGISNYLAWYQQKPGRAPKLLIYKASTLHIGVPSRFSGSGSGTEFALTISSLQPDDFSTYYCQQYNSYLPHTFGQGTRLEIKR | 8.37 | 
7 | Hu6G11.1 IgG (antibody, V domains shown) VH: QVQLVQSGAEVAKPGASVKMSCKASGYTFTSYWMHWVRQAPGQGLEWIGYINPSTGYTEYNQKFKDRATLTADKSKSTAYMELSSLRSEDTAVYYCARGYFSFAYWGQGTLVTVSS VL: DIVMTQSPSSLSASVRDRVTITCQASHDIKNFLNWFQQKPGKAPKLLVYDASYLQVGVPSRFSASGYGTEFTLTISSLQPEDFATYYCQQANSFPRTFGQGTKVEIKR | 0.101 | 
8 | Hu6G11.2 IgG (antibody, V domains shown) VH: QVQLVQSGAEVAKPGASVKMSCKASGYTFTSYWMHWVRQAPGQGLEWIGYINPSTGYTEYNQKFKDRATLTADKSKSTAYMELSSLRSEDTAVYYCARGYFSFAYWGQGTLVTVSS VL: DIVMTQSPSSLSASVRDRVTITCQASHDIKNFLNWFQQKPGKAPKLLVYDASHLQVGVPSRFSASGYGTEFTLTISSLQPEDFATYYCQQANSFPRTFGQGTKVEIKR | 0.048 | 
9 | hu6G11 IgG (antibody, V domains shown) VH: QVQLVQSGAEVAKPGASVKMSCKASGYTFTSYWMHWVRQAPGQGLEWIGYINPSTGYTEYNQKFKDRATLTADKSTSTAYMELSSLRSEDTAVYYCARGYFSFAYWGQGTLVTVSS VL: DIVMTQSPSSLSASVRDRVTITCQASHDIKNFLNWFQQKPGKAPKLLVYDASNLQVGVPSRFSASGYGTEFTLTISSLQPEDFATYYCQQANSFPRTFGQGTKVEIKR | 0.531 | 
10 | Hu6G11.1 scFv (scFv, V domains shown) VH: QVQLVQSGAEVAKPGASVKMSCKASGYTFTSYWMHWVRQAPGQGLEWIGYINPSTGYTEYNQKFKDRATLTADKSKSTAYMELSSLRSEDTAVYYCARGYFSFAYWGQGTLVTVSS VL: DIVMTQSPSSLSASVRDRVTITCQASHDIKNFLNWFQQKPGKAPKLLVYDASYLQVGVPSRFSASGYGTEFTLTISSLQPEDFATYYCQQANSFPRTFGQGTKVEIKR |  | 0.32
11 | Hu6G11.2 scFv (scFv, V domains shown) VH: QVQLVQSGAEVAKPGASVKMSCKASGYTFTSYWMHWVRQAPGQGLEWIGYINPSTGYTEYNQKFKDRATLTADKSKSTAYMELSSLRSEDTAVYYCARGYFSFAYWGQGTLVTVSS VL: DIVMTQSPSSLSASVRDRVTITCQASHDIKNFLNWFQQKPGKAPKLLVYDASHLQVGVPSRFSASGYGTEFTLTISSLQPEDFATYYCQQANSFPRTFGQGTKVEIKR |  | 0.56
12 | Hu6G6.2 IgG (antibody, V domains shown) VH: QVQLVQSGAEVKKPGASVKLSCKASGFNIKDTYMHWVRQAPGQGLEWIGRIDPENGNTKYDPKFQGRATITAYKSINRAYLELSRLRSDDTAVYYCASGPNYYGTTWFAYWGQGTTVTVSS VL: EIVLTQSPSTLSASVGDRVTITCRASHGISNYLAWYQQKPGRAPKLLIYKASTLHIGVPSRFSGSGSGTEFALTISSLQPDDFSTYYCQQYNSYLPHTFGQGTRLEIKR | 0.0422 | 
13 | 6G7.1 IgG (antibody, V domains shown) VH: DVQLQESGPELVKPGASVKVSCKASDYSFTDYNIYWVKQSHGKSLEWIGYIDPYNGGTSYNQKFKGKATLTVDKSSSTAFMYLNSLTSEDSAVYYCALYGYDPDYIDYWGQGTTLTVSS VL: QIVLTQSPAIMSASPGEKVTITCSASSSVSYLHWFQQKPGTSPKLWIYSTSNLASGVPARFSGSGSGTSYSLTISRMEAEDAATYYCQQRSSYPYTFGGGTKLEIKA | 0.0266 | 
